molecular target: prototype SARS-CoV-2 tandem RBD homotrimer (PPP) (SARS-CoV-2) (UniProt P0DTC2); experiment: SPR

**Q.** Which Kd does the source give for C022 here?
**A.** 1.8 nM

**Q.** How did the Kd turn out when CR3022 was run?
**A.** 80.6 nM

**Q.** How did the Kd turn out when CV07-270 was run?
**A.** 11.7 nM

**Q.** For REGN10933, which Kd is on record?
**A.** 5.4 nM

**Q.** For S309, which Kd is on record?
**A.** 0.4 nM

From PMC10538664
